B1: NF2 (merlin) isoform 7, human, full length (507 aa, lacks exons 2-3 = isoform-1 residues 39-121; exon-16 C-terminus), P35240-4 (parent)
chain: MAGAIASRMSFSSLKRKQPKTFTVRIVTMDAEMEFNCEVKKQILDEKIYCPPEASVLLASYAVQAKYGDYDPSVHKRGFLAQEELLPKRVINLYQMTPEMWEERITAWYAEHRGRARDEAEMEYLKIAQDLEMYGVNYFAIRNKKGTELLLGVDALGLHIYDPENRLTPKISFPWNEIRNISYSDKEFTIKPLDKKIDVFKFNSSKLRVNKLILQLCIGNHDLFMRRRKADSLEVQQMKAQAREEKARKQMERQRLAREKQMREEAERTRDELERRLLQMKEEATMANEALMRSEETADLLAEKAQITEEEAKLLAQKAAEAEQEMQRIKATAIRTEEEKRLMEQKVLEAEVLALKMAEESERRAKEADQLKQDLQEAREAERRAKQKLLEIATKPTYPPMNPIPAPLPPDIPSFNLIGDSLSFDFKDTDMKRLSMEIEKEKVEYMEKSKHLQEQLNELKTEIEALKLKERETALDILHNENSDRGGSSKHNTIKKPQAQGRRPICI

Values joined by “and” are separate entries in the source; they are usually repeats but may differ in a detail not shown here. Equal entries are not always repeated.

In one assay the parent is B1. Nature of the assay: reverse yeast two-hybrid deep mutational scan (rY2H-seq): NF2 isoform 7 mutant library as bait mated with wild-type prey strains; selection on medium lacking adenine for non-interacting pairs; NextSeq paired-end sequencing; enrichment vs …. To be noted: with NF2 C-terminal domain (wild type; homomeric NF2-NF2 interaction), P35240; yeast diploids after mating (RBait_S3 x RPrey_S3), 30 °C, selection for reporter genes on NB agar; human ABL2 co-expressed as the kinase-dead K35M mutant …; HIGHER = WEAKER BINDING (the opposite of display enrichments): higher = stronger loss of interaction: reverse Y2H selects yeast in which bait and prey do NOT interact (growth without adenine), so a …; hits-only table; partner unresolved; scale: rY2H score; numbering: uniprot, sequence starts at 1.
With P19E, the enrichment amounted to 3.9.
The same measure, in the same setting: under E132L stands 1.84; under E132K, 5.61; under R363L, 2.55.
Still for that read-out and setting: under V27L stands 2.04; under P163E, 2.31.
Regarding A266L, the enrichment is 3.08.
Same read-out and setting: in the case of L348A it was 4.71; in that of P413K, 1.53.
K496S: the enrichment was 1.44.
On the same count and under the same terms, in the case of M357A it was 1.97 and 1.82; in that of M262D, 6.41; in that of D476G, 1.92.
Same read-out and setting: under M133E stands 2.45.
With L156K, the enrichment is 2.02.
Still for that read-out and setting: under H159A stands 2.04.
Same read-out and setting: under F424E stands 27.7; under A287E, 3.57 and 6.74.
On the same count and under the same terms, under A358E stands 2.37; under A358K, 3.8; under L315R, 1.62.
As for A378L, the enrichment was determined as 2.15.
Same read-out and setting: in the case of D69L it was 1.7; in that of L167K, 1.57; in that of T336D, 3.64.
A406L: the enrichment was found to be 10.
On the same count and under the same terms, under H479A stands 4.46; under L301A, 1.81; under N457E, 2.32.
As to R293K, the enrichment stood at 7.18.
On to D374A, for which the enrichment was found to be 1.98.
On the same count and under the same terms, under K395S stands 2.15.
Same read-out and setting: under A298E stands 2.55 and 1.66.
The same measure, in the same setting: under S421K stands 2.24.
Take D411L: the enrichment came to 3.15.
Same read-out and setting: in the case of R248L it was 2.23; in that of A302K, 1.89; in that of E83K, 18.2.
On the same count and under the same terms, under P399S stands 3.98.
On the same count and under the same terms, under E321A stands 1.62; under K260A, 2.49.

Staying with this assay, now noted: with KDM1A (lysine-specific histone demethylase 1A; the table's label AOF2 is a gene synonym of KDM1A), O60341; yeast diploids after mating (RBait_S3 x RPrey_S3), 30 °C, selection for reporter genes on NB agar; human tyrosine kinase ABL2 co-expressed as the active kinase …; HIGHER = WEAKER BINDING (the opposite of display enrichments): higher = stronger loss of interaction: reverse Y2H selects yeast in which bait and prey do NOT interact (growth without adenine), so a …; hits-only table; scale: rY2H score; numbering: uniprot, sequence starts at 1.
On to I412H, for which the enrichment worked out at 6.45.
Consider R363L, for which the enrichment amounted to 1.9.
On to P163E, for which the enrichment came to 4.05.
Consider F200S, for which the enrichment was 3.89.
On the same count and under the same terms, in the case of N402E it was 1.73; in that of E121A, 1.59.
Same read-out and setting: in the case of M262D it was 5.37.
Still for that read-out and setting: in the case of M133E it was 21.9; in that of M446I, 1.99; in that of H159A, 1.39.
H159P: the enrichment is 3.93 and 3.02.
Same read-out and setting: in the case of E444K it was 1.5; in that of I418A, 1.5; in that of E391R, 2.32.
The same measure, in the same setting: in the case of M401E it was 1.62.
Regarding M401K, the enrichment is 1.99 and 1.77.
On the same count and under the same terms, under A365K stands 2.
Still for that read-out and setting: under R335L stands 3.71; under R335S, 1.9; under M286A, 1.89.
As to E38K, the enrichment was 1.85.
Take K356E: the enrichment worked out at 1.91.
Consider K356A, for which the enrichment was determined as 2.
Same read-out and setting: in the case of R328L it was 2.21; in that of R253Q, 1.48.
On the same count and under the same terms, in the case of A333E it was 2.04.
On the same count and under the same terms, in the case of H221Y it was 2.24; in that of Y398K, 2.43.
For Q82D, the enrichment was 1.58.
For L301A, the enrichment was determined as 2.
The same measure, in the same setting: under T397I stands 4.78.
On the same count and under the same terms, in the case of A155C it was 1.93; in that of S421K, 2.61; in that of D411A, 2.4 and 1.53.
Same read-out and setting: under E311K stands 1.67 and 1.4.
As for D162Y, the enrichment was determined as 2.15.
Same read-out and setting: under L57A stands 3.5; under M96I, 1.63; under M96V, 1.61.
Still for that read-out and setting: under D299E stands 1.51; under K304P, 1.4; under K304A, 3.58.
On the same count and under the same terms, under D428N stands 1.87; under Q500K, 1.42.
For E321L, the enrichment is 3.26.
Still for that read-out and setting: in the case of M225K it was 43.

The assay is the same for the next values; noted with them: with PIK3R3 (phosphatidylinositol 3-kinase regulatory subunit gamma), Q92569; yeast diploids after mating (RBait_S3 x RPrey_S3), 30 °C, selection for reporter genes on NB agar; human tyrosine kinase ABL2 co-expressed as the active kinase …; HIGHER = WEAKER BINDING (the opposite of display enrichments): higher = stronger loss of interaction: reverse Y2H selects yeast in which bait and prey do NOT interact (growth without adenine), so a …; hits-only table; scale: rY2H score; numbering: uniprot, sequence starts at 1.
Regarding N402E, the enrichment is 1.42.
As for L348A, the enrichment amounted to 2.29.
On the same count and under the same terms, in the case of M357E it was 2.86; in that of M262D, 15.7; in that of M133I, 2.1.
On the same count and under the same terms, under A62K stands 2.93; under V24A, 2.39.
The same measure, in the same setting: under F173P stands 13; under F173T, 11.
Regarding A287E, the enrichment turned out to be 2.8.
On the same count and under the same terms, in the case of L212P it was 2.57; in that of R166K, 2.44; in that of R166C, 1.57.
Turning to D194N, the enrichment was determined as 1.96.
The same measure, in the same setting: in the case of M401Q it was 2.91.
Take M401E: the enrichment was 2.14.
In the case of M401K, the enrichment stood at 2.17.
On the same count and under the same terms, under A365G stands 2.6.
Same read-out and setting: under A365K stands 2.58; under A290V, 2.94; under Q498E, 1.97.
The same measure, in the same setting: under T336E stands 3.42; under K356L, 7.08; under R253Q, 1.57.
As to G68V, the enrichment stood at 7.34.
Same read-out and setting: in the case of A155C it was 1.8 and 1.98.
The same measure, in the same setting: under A155T stands 2.16; under I141C, 1.42.
Still for that read-out and setting: under T493A stands 2.62.
Take R485K: the enrichment was 6.26.
Still for that read-out and setting: under D71T stands 11.1.
On the same count and under the same terms, in the case of D484E it was 2.39.
On the same count and under the same terms, under K191S stands 2.28.
For I171L, the enrichment was determined as 1.51.
Same read-out and setting: in the case of K388E it was 3.32.
As to E321L, the enrichment came out at 3.49.
Same read-out and setting: in the case of M225I it was 2.15.

The same assay, now with this note: with KDM1A (lysine-specific histone demethylase 1A; the table's label AOF2 is a gene synonym of KDM1A), O60341; yeast diploids after mating (RBait_S3 x RPrey_S3), 30 °C, selection for reporter genes on NB agar; human ABL2 co-expressed as the kinase-dead K35M mutant …; HIGHER = WEAKER BINDING (the opposite of display enrichments): higher = stronger loss of interaction: reverse Y2H selects yeast in which bait and prey do NOT interact (growth without adenine), so a …; hits-only table; scale: rY2H score; numbering: uniprot, sequence starts at 1.
Take H159P: the enrichment was found to be 1.84.
Still for that read-out and setting: under F173V stands 2.3; under A290V, 1.65; under P410R, 1.58.
The same measure, in the same setting: under K356L stands 3.88.
Still for that read-out and setting: in the case of K15L it was 1.66; in that of Q370A, 1.45 and 2.01.
Turning to H112A, the enrichment came out at 2.37.
Turning to R471A, the enrichment stood at 3.18.

Source of the values: publication PMC10244618.
